# In the RNAGym collection of RNA variant scans (doi:10.1073/pnas.2313332121):
# B1: TPR t1 (parent)
# chain: GACCAAUCUGCCCUCAGAGCUCGAGAACAUCUUCGGAUGCAGAGGAGGCAGGCUUCGGUGGCGCGAUAGCGCCAACGUCCUCAACCUCCAAUGCAUCCCACCACAUGAUGAUGCCUGAAGAGCCUUGGUUUUUUG
# Variants of: B1
# Test: polymerase ribozyme fitness, log enrichment relative to wild type (log ratio); higher = more active; in vitro selection for triplet polymerase activity
# In short: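 Input and output libraries were sequenced on Illumina after a single in vitro selection round, run in triplicate on PCR-built, transcribed mutant libraries of each subunit of a heterodimeric triplet polymerase ribozyme. Selection annealed libraries to a biotinylated primer, the partner subunit and triplets, incubated them frozen at −7 °C, then gel-excised extended constructs for streptavidin-bead capture and RT-PCR. Genotypes with ≥10 input reads and ≥1 read per output were kept. Fitness is the logarithm, taken in base 2, of genotype enrichment divided by wild-type enrichment, using inverse-variance-weighted replicate averages.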
row,Variant,polymerase ribozyme fitness (log ratio)
1,C12G A18G A74U U78G U87A,-4.81
2,C12G C22A C49A U55A C56U C62G G93U,-7.34
3,C12A G93A,-1.39
4,C12A C72G A91C U96A,-2.9
5,C12G C64U U133A,-0.644
6,C12A G51U A90G,-2.76
7,C12G A27G A68G,-4.94
8,C12G U112A,1.99
9,C12G C15A A41G G110A,-4.25
10,C12G C40U G47C C79U C82G C123A U130C,-2.93
11,C12G G39A C82G C114U,-3.7
12,C12A C62G,-0.737
13,C12G C15U C62A,-1.99
14,C12A C72G U133C,-1.17
15,C12G G120U G127U,1.47
16,C12G A100C G113U,-5.35
17,C12A U21C C72G,-0.431
18,C12G G44U G47C G58C U116A,-5.59
19,C12G G69U,0.711
20,C12G C62G C115U,-3.7
21,C12G G48C A91C,-2.22
22,C12G C72G,0.202
23,C12A G117C,-3
24,C12G A43U C70A C79U C82A U96A,-5.11

row,Variant,polymerase ribozyme fitness (log ratio)
1,C12G U21C C101U A105U,-4.94
2,C12A C49G U109C A111U,-6.35
3,C12A U38C G44A C56G G93A C104G G110U,-7.49
4,C12G C62G C82A,-1.16
5,C12A U78A A119U,-0.914
6,C12G A66C,-0.578
7,C12G C64A G122A,-6.12
8,C12A U55G G57A U109A G117U U132C U134G,-6.47
9,C12A G65U G110A U131G G135U,-7.22
10,C12A G42U G60A U87A G113A,-4.01
11,C12G C56A C82A,-0.693
12,C12A C49U G113C U133C,-3.24
13,C12G G36A C53A A74G C89U,-1.5
14,C12G C15U A74U U116A G117A U133A,-1.36
15,C12A G122U C124A,1.6
16,C12A G45U A100U,-3.05
17,C12G U55A C56G U81C,-1.29
18,C12G A75U,0.372
19,C12A G36U C64U A83G G113A,-4.18
20,C12A C72A G120C,1.29
21,C12A G60A C88A C101A C102A,-4.87
22,C12G U30C C70A,-4.46
23,C12G G35U C70U A74C C123G,-5.14
24,C12G C56G,-1.05

row,Variant,polymerase ribozyme fitness (log ratio)
1,C12A G36A U54A G57C C97A,-4.92
2,C12G U96C,0.043
3,C12A U59C,-0.85
4,C12A U59G,-0.837
5,C12A G135U,-1.23
6,C12A G42A,-1.63
7,C12U A16U C22G C99U,-3.39
8,C12A C88G G128U U129A,-4.77
9,C12G A18C C56U C80U U112G,-4.94
10,C12G U87C,0.621
11,C12G A46U C49A A95C,-2.16
12,C12U A18U G19C G35A G48A C72A U112A,-6.64
13,C12G G47C,-1.34
14,C12G C89U C97A G113C,-6.48
15,C12G U109A,-4.88
16,C12G C76A U116A,-3.37
17,C12U A18G G19C A37U A118U A121G,-1.65
18,C12G G45U C101U A118U,-0.398
19,C12G G35A A37U G63C,-5.96
20,C12U A26G C64A C73U G110C,-5.13
21,C12A G52U G57U C64U C72U A105U,-3.63
22,C12G G19C G57A A119G U131A,-3.15
23,C12G U78G C102U,-1.99
24,C12G C94U,-0.437

row,Variant,polymerase ribozyme fitness (log ratio)
1,C12G G19U C72A,-5.03
2,C12G A50U C73U,-0.885
3,C12G C56U A74G G77C,-1.66
4,C12G A24G A41U G57C G110A,-5.76
5,C12G G128A,-1.65
6,C12G A16U U55C U78C A108G C123U,-3.68
7,C12G A37U G61C A75G,-1.16
8,C12A C62A U112A C123G,-1.09
9,C12G U32A,-3.25
10,C12G U32G,-6.87
11,C12G G57C,-0.0296
12,C12G G63U A66U G120U G127U,-0.34
13,C12A U116A,-4.12
14,C12G C15G C123U,-1.81
15,C12G G60U G61C C88A U112A A119G,-3.63
16,C12G U30G C72G C101A U106A A119U C123U,-5.26
17,C12A C101U,-0.736
18,C12A C34U,-4.77
19,C12G C73U,-0.295
20,C12G C73A,0.691
21,C12G A29U U55G C62U C102U G117A,-4.8
22,C12G G36C C114A G120A,-2.67
23,C12G C123A U126C,0.201
24,C12A G107A,-5.12

row,Variant,polymerase ribozyme fitness (log ratio)
1,C12G G39A G44A C102U,-4.47
2,C12G C102A,-1.85
3,C12G C102U,-1.38
4,C12G G39U C53G,-0.932
5,C12G G107U,-5.64
6,C12G U78C U125A,-0.607
7,C12A U112A,1.18
8,C12A C62A U78G,-2.28
9,C12G C64U A75U U116G G122A C124G,0.593
10,C12G C28G,-1.82
11,C12A G113C U126C,-3.59
12,C12A C53G U54C A121C,1.77
13,C12A G23A G77U A119G,-5.67
14,C12A G63A,-1.5
15,C12A G63U,-2.42
16,C12A G63C,-1.33
17,C12G G45A A84C U106G,-1.76
18,C12G A43C G48A,-2.3
19,C12A G36U G48A G63C C123A,-0.6
20,C12U A26G C56U C72U G117A U125G,-2.09
21,C12A C80U A84U C89U A119G C123A,0.231
22,C12A U78C A84U,-1.77
23,C12G G63A C115G G117U,-4.35
24,C12A G110U,-1.4

row,Variant,polymerase ribozyme fitness (log ratio)
1,C12G A83C,-1.43
2,C12G C28U C124U,-0.261
3,C12A C85A,-2.59
4,C12A C80A G120U,-0.968
5,C12A G57A G60A,-0.307
6,C12A G61U U109G,-7.2
7,C12A G17A,-4.31
8,C12A G17U,-3.81
9,C12G C20U A66U G69A,-5.04
10,C12G C101G C102G G110C,-5.71
11,C12G C15A G39U A41G C49G,-4.44
12,C12G C70A A118G,-0.792
13,C12A C40G,-1.7
14,C12A C40U,-1.32
15,C12A G77U G110C U130C,-3.57
16,C12A C49U U109A U116A C123G,-6.73
17,C12G G23A G71C C123G U129A,-7.78
18,C12A C70A,-2.05
19,C12A C89G C114A,-4.11
20,C12G G44U U59G,-1.39
21,C12A U32A C34G C102U,-6.82
22,C12A C31U G35A C104G C115U,-6.08
23,C12G A26C G60U A121U C124A U131G,-3.72
24,C12A U32C G45A U132A,-1.76

row,Variant,polymerase ribozyme fitness (log ratio)
1,C12G C34A C62U,-2.32
2,C12A G45U C56U U78A,-1.36
3,C12G A18U,-1.46
4,C12A C72U G113C,-4.5
5,C12G U130C,0.663
6,C12A C123U,0.76
7,C12G C62G C72G U87A G113U U125G,-5.49
8,C12G G47U C64U,-1.58
9,C12A G120A,0.0228
10,C12A G120C,0.84
11,C12G U55A C56G G63A U81C,-2.01
12,C12G C102U A119G C124U U125A,-0.278
13,C12A U21C C40U G42A A50C,-3.16
14,C12A G48C C72U G117U,-5.59
15,C12G C72G C86A U92A G110U,-4.84
16,C12G A46U C49A,-1.36
17,C12G C22A A41G G71U C124A,-4.76
18,C12U A18G A41U G47C C72U U109G C124G,-3.69
19,C12G A26U G45U U106A G127U,-4.14
20,C12G U14C C85U C86U,-1.22
21,C12A G47A,-1.98
22,C12A G47U,-2.48
23,C12G A29U G117A,-2
